Measured values as given in the nanobody polyreactivity screen of Harvey et al. (2022).

Experiment: yeast display, Sf9 membrane polyspecificity reagent, FACS + sequencing; frameworks hold sequencing errors
Summary of the method: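 Synthetic nanobody libraries on Saccharomyces cerevisiae BJ5465 were galactose-induced for 36–48 hours, stained 1 hour at 4 °C with 10% biotinylated, detergent-solubilized Sf9 membrane reagent and enriched on streptavidin microbeads. FACS then separated cells into low and high (top ~1%) gates by anti-HA (expression) and streptavidin (reagent binding) fluorescence. Genes were colony-PCR amplified, MiSeq 2 × 250 sequenced and CDR-length filtered. A clone's polyreactivity label is that of its gate of origin.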
For “QVQLVESGGGLVQAGGSLRISCASSVRTFAWNAMGWYRQAPGKERELVAVITSGVSTNYADSVKGRFTISRDNANNTVYLQMNSLKPEDTAVYYCAARSWVYSVIGDNWGLGTQVTVSS”, the “polyreactivity (PSR sort gate)” value was “low polyreactivity”.
In the case of “QVQLVESGGGLVQAGGSLRISCDASGSTFAWYAMGWYRQAPGKERELVAAISRTGRTYYADSVKGRFTISRDNAKNTVYLQMNRLTPEDTAVYYCAGRIERFYRDQRYDYWGQGTQVTVSS”, the “polyreactivity (PSR sort gate)” value is reported as “high polyreactivity”.
For “QVQLVESGGGLVQAGGSLRISCEAYGSIFGSYAMGWYRQEPGKERELVAGITYRGSSTYYADSVKGRYTISRDNAKNTVYLQMNSLKPEDTAVYYCAADPVFDEYDYWGQGTQVTVSW”, the “polyreactivity (PSR sort gate)” value was “low polyreactivity”.
With “QVQLVESGGGLVQAGGSLRISCSASGGIFDPYAMGWYRQAPGKERELVAAITNSGGSTYYADSVKGRFTISRDNAKNTVYLQMNSLKPEDSAVYYCAAEGLYVGYDYWGHGTQVTVSS” the “polyreactivity (PSR sort gate)” value was “low polyreactivity”.
With “QVQLVESGGGLVQAGGSLRITCAASGSTFYRNAMGWYRQAPGKERELVAALSRGGSTYYADSVKGRFTISRDNAKNTVYLQMNSLKPEDSAVYYCAARYYSYQYGRHTRYQSVYWGQGTQVTVSS” the “polyreactivity (PSR sort gate)” value was “high polyreactivity”.
For “QVQLVESGGGLVQAGGSLRKSCAASGSTFVDYDMGWYRQAPGKERELVAGITTGGSTNYADSVKGRFPISRDNAKNTVYLQMNSLKPEDTAVYYCNADSYPILVPDYLYYWYEYWGQGTQVTVSS”, the “polyreactivity (PSR sort gate)” value was “low polyreactivity”.
For “QVQLVESGGGLVQAGGSLRLAVLPPDLPSTLNDMGWYRQAPGKERELVAAITRGGSTNYADSVKGRFTISRDNAKNTVYLQMNSLKPEDTAVYDCAAPYAGWRDGGDYWGQGTQVTVSS”, the “polyreactivity (PSR sort gate)” value was “low polyreactivity”.
In the case of “QVQLVESGGGLVQAGGSLRLCCAASGFICGKYALGWYRQAAGNEWVLVAAITSDGRTYYADSVKGRFTISRDNPKNTVYVQMNSLKPEDTAVYYCAVDYYWYSYSGYDDYWGQGTQVTVSS”, the “polyreactivity (PSR sort gate)” value is reported as “high polyreactivity”.
With “QVQLVESGGGLVQAGGSLRLCCAASGFTFSWYAMGWYRQAPGKERELVAAISSSGGSTYYADSVKGRFTISRDNAKNTVYLQMYSLKPEDTAVYYCNAYRSASVVVGYDYWGQGTQVTVSS” the “polyreactivity (PSR sort gate)” value was “high polyreactivity”.
In the case of “QVQLVESGGGLVQAGGSLRLCCAASGLTFAYYDMGWYRQAPGKERELVAAITSGGTTNYADSVKGRFTISRDNAKNTVYLQMNSLKPEDNAVYYCATDSWYGSWKYDYWGQGTQVTLSS”, the “polyreactivity (PSR sort gate)” value is reported as “low polyreactivity”.
In the case of “QVQLVESGGGLVQAGGSLRLCCAASGLTFYPNAMGWYRQAPGKEREFVASISISGRTYYADSVKGRFTISRDNAKNTVYLQMNSLKPEDTAVYYCAARYVRSGLYRKYDYWGQGTQVTVSS”, the “polyreactivity (PSR sort gate)” value is reported as “high polyreactivity”.
In the case of “QVQLVESGGGLVQAGGSLRLCCAASGRTFPYYAMGWYRQAPGKERELVAAISSSGGRTYYADSVKGRFTISRDNAKNTVYLQMNSLKPEDTAVYYCNVDAWYPYQGFLVGYYYWGQGTQVTVSS”, the “polyreactivity (PSR sort gate)” value is reported as “low polyreactivity”.
In the case of “QVQLVESGGGLVQAGGSLRLCCAASGSTFADNAMGWYRQAPGTDGEFVAGISTNGGSTYYADSVKGRFRISRDNAKTTVDCQLNSLKPEDTAVYDSAAVNYYDQYGDYYWGQGTQVTVSS”, the “polyreactivity (PSR sort gate)” value is reported as “low polyreactivity”.
In the case of “QVQLVESGGGLVQAGGSLRLCCAAYGFTFRINAMGWYRQAHGKERELVAYMSGRGGSTYYADSVQGRFTISRDNAMNTVYLQMNSLKPEDTAVYYCAATGSSSMSSYYLGQGTQVTVSS”, the “polyreactivity (PSR sort gate)” value is reported as “high polyreactivity”.
For “QVQLVESGGGLVQAGGSLRLGCAASGSTLYSYAMGWYRQAPGKERELVASISSGASTYYADSVKGRFTISRDNAKNTVYLQMNSLKPEDTAVYYCNADAGSYHTGWVTPWGSDEYDYWGQGTQVTVSS”, the “polyreactivity (PSR sort gate)” value was “low polyreactivity”.
In the case of “QVQLVESGGGLVQAGGSLRLICAAAGRTFWYNAMGWYRQAPGKERELVAVISSGAITYYADSVKGRFTISRDNAKNTVYLQMNSLKPEDTAVYYCAARSYLSLIDYWGQGTQVTVSS”, the “polyreactivity (PSR sort gate)” value is reported as “high polyreactivity”.
In the case of “QVQLVESGGGLVQAGGSLRLICAACGYTFEHYAMGWYRQAPGKERELVAAITRSGGSTSYADSVKGRFTISRDNAKNTVFLQMNRVKPEDTAVYYCAADSIRYFDYDYWGQGPQVTVSS”, the “polyreactivity (PSR sort gate)” value is reported as “low polyreactivity”.
In the case of “QVQLVESGGGLVQAGGSLRLICAASGFIFITNAMGWSRQAPGKERELVAAITSSDGNTYYADSVKGRFTISRDNAKNTVYLQMNSLKPEDTAVYYCADDARTKSYVRLYDYWGQGTQVTVSS”, the “polyreactivity (PSR sort gate)” value is reported as “low polyreactivity”.
In the case of “QVQLVESGGGLVQAGGSLRLICAASGFIFSFNAMGWYRQAPGKERELVAAIRRSAGSTYYADSVKGRFTISRDNAKNTVYLQMNSLKPEDTAVYYCATVTRLYRHGYWGQGTQVTVSS”, the “polyreactivity (PSR sort gate)” value is reported as “high polyreactivity”.
For “QVQLVESGGGLVQAGGSLRLICAASGFIFSSYAMVWYRQAPGKERDLVAAISQTVGGTYYADSVKGRFTISRDNAKNTVYLQMNSLKPEDTAVYYCAADVYTASDRYWHDYWGQGTQVTVSS”, the “polyreactivity (PSR sort gate)” value was “low polyreactivity”.
With “QVQLVESGGGLVQAGGSLRLICAASGFIFTLYAMGWYRQAPGTERELVAAISKTGGRTYYADSVKGRFTISRDNAKNTVYLQMNSLKPEDTAVYYCAKDVPSTYAAAYDYWGQGTQVTVSS” the “polyreactivity (PSR sort gate)” value was “high polyreactivity”.
In the case of “QVQLVESGGGLVQAGGSLRLICAASGFIIYIYAMGWYRQAPGKERELVAAISRSGVGTYYADSVKGRFTISRDNAKNTVYLQMNSLKPEDTAVYYCARSRSGYRYDYWGQGTQVTVSS”, the “polyreactivity (PSR sort gate)” value is reported as “high polyreactivity”.
For “QVQLVESGGGLVQAGGSLRLICAASGFISVRNAMGWYRQGPGKERELGAAISSGDTTDYADSVKGSFTISRDNAKNTVYLQMNSLKPEDTAVYYCAAVYYGRYYYWGQGTQVTVSS”, the “polyreactivity (PSR sort gate)” value was “low polyreactivity”.
In the case of “QVQLVESGGGLVQAGGSLRLICAASGFTFASNAMGWYRQATGKERELVAAITTSGGSTYYADSVKGRFTISRDNAKNTVYLQMNSLKPEDTSVYYCADRATSRRPYSYGSWGQGTQVTVSS”, the “polyreactivity (PSR sort gate)” value is reported as “high polyreactivity”.
In the case of “QVQLVESGGGLVQAGGSLRLICAASGFTFGEYAMGWYRQAPGKERDFVASISWDGASTYYADSVKGRFTISRDNAKNTVYLQMKSLKPEDTAVYYCAATRYYSFWGQGTQVTVSS”, the “polyreactivity (PSR sort gate)” value is reported as “low polyreactivity”.
In the case of “QVQLVESGGGLVQAGGSLRLICAASGFTFGYYAMGWYRQAPRKERELVAAISYTGGSTYYADSVKGRFTISRDNAMNTVYLQMNSLKPEDTAVYYCNAYSALYGSYNYWGQGTQVTVSS”, the “polyreactivity (PSR sort gate)” value is reported as “high polyreactivity”.
With “QVQLVESGGGLVQAGGSLRLICAASGFTFSYYAMGWYRQAPGKESELVAGITTGGGTNYADSVKGRFTISRDNAKNTVYLQMNCLKPEDTAVYYCNAVGSHWVSYSSPVRFDFWGQGTQVTVSS” the “polyreactivity (PSR sort gate)” value was “low polyreactivity”.
With “QVQLVESGGGLVQAGGSLRLICAASGFTFYKNTMGWYRQAPGKERELVAAISSSGSSTYYADSVKGRFTISRDNAKNTVYLQMNSLKPEDTAVYYCAAGRFAYHDDYWGQGTQVTVSS” the “polyreactivity (PSR sort gate)” value was “high polyreactivity”.
In the case of “QVQLVESGGGLVQAGGSLRLICAASGGIFWYNAMGWYRPAPGKERELVADISSSGITYYADSVKGRFTISRDNAKNTVYLQMNSLKPEDTAVYYCAADSTTRPGLRVYDDYDYWGQGTQLTVSS”, the “polyreactivity (PSR sort gate)” value is reported as “low polyreactivity”.
In the case of “QVQLVESGGGLVQAGGSLRLICAASGGIFYSNARGWYRQAPGKERDFVAAITRSGTSTYYADSVKGRITISRDNAKNTVYLQMNSLKPVDTAVYYCAADYRYRRYRGHVSKLYYWGQGTQVTVSS”, the “polyreactivity (PSR sort gate)” value is reported as “low polyreactivity”.
In the case of “QVQLVESGGGLVQAGGSLRLICAASGIIFGIYDMGWYRQAPGKERELVAAIRRSGGSTYYADSVKGRFTISRDNAKNTVYLQMNSLKPEDTAVYYCATDAWYYSQTNHDYWGQGTQVTVSS”, the “polyreactivity (PSR sort gate)” value is reported as “low polyreactivity”.
In the case of “QVQLVESGGGLVQAGGSLRLICAASGIIFQAYTMGWSRQAPGKERELVAAISYSGGSTYYADSVKGRFTISSDNAKNSVYLEMKSLKPEDTAVYYCARRSRYLWRYDYWGQGTQVTVSA”, the “polyreactivity (PSR sort gate)” value is reported as “high polyreactivity”.
In the case of “QVQLVESGGGLVQAGGSLRLICAASGIIFYYAMGWYRQAPGKEREFVASIRWSGDSTYYADSVKGRFTISRDNAKNTVYLQMNSLKPEDTAVYYCAAEPDSAVSYVSWRDYWGQGTQVTVSS”, the “polyreactivity (PSR sort gate)” value is reported as “low polyreactivity”.
With “QVQLVESGGGLVQAGGSLRLICAASGIILYSYAMGWYRQAPGKERELVAAISRRGTSTFYADSVKGRFTISRDNAKNTVYLQMNSLKPEDTAVYYCAADFYTNHYDYWGQGTQVTVSS” the “polyreactivity (PSR sort gate)” value was “high polyreactivity”.
With “QVQLVESGGGLVQAGGSLRLICAASGITFEVYAMGRYRLAPGKEMELVAVITSVGSTNYADSVKGRFTISRDNAKNTVYLQMNSLKPEDPAVYYCAALKWTVRRFNPYTYYRYDYWGQGTQVTVSS” the “polyreactivity (PSR sort gate)” value was “low polyreactivity”.
With “QVQLVESGGGLVQAGGSLRLICAASGITFPSNTMGWYRQAPGKERELVAAITRGDNTYYADSVKGRFTISRDNAKNTVYLQMNSLKPEYTAVYYCATEGYQIQYEHDYWGQGTIVTVSS” the “polyreactivity (PSR sort gate)” value was “low polyreactivity”.
In the case of “QVQLVESGGGLVQAGGSLRLICAASGITFSAYAMGWYRQAPGKERELVAAITRSGGITYYADSVKGRFTISRDNAKNSVYLQMNSLKPEDTAVYYCNKPYASPYYDSWGQGTQVTVSS”, the “polyreactivity (PSR sort gate)” value is reported as “high polyreactivity”.
For “QVQLVESGGGLVQAGGSLRLICAASGITFTGYAMGWYTQAPGKERELVAVISETGGSTYADSVKGRFTISRDNAKNTVYLQMNSLKPEDTAVYYCAARLWWPYSTAWAKMDYWGQGTQVTVSS”, the “polyreactivity (PSR sort gate)” value was “low polyreactivity”.
In the case of “QVQLVESGGGLVQAGGSLRLICAASGITFVEYSMGWYRQAPGKERDLVAAISWSGVRTRYADSVKGRFTISRDNAKNTVYLQMNSLKPEDTAVYYCYTVPRGGGGVRILDYWGQGTQVTESS”, the “polyreactivity (PSR sort gate)” value is reported as “high polyreactivity”.
For “QVQLVESGGGLVQAGGSLRLICAASGITFVYYAMGWYRQAPGKERELVAAISTSGDSTYYADSVKGRFTISRDNAKNTVYLPMNSLKPEDTAVYYCAADADYYQYGWRVYYWGQGTQVTVSS”, the “polyreactivity (PSR sort gate)” value was “low polyreactivity”.
For “QVQLVESGGGLVQAGGSLRLICAASGITFYAYPMGWYRQAPGKERELVAAITSSGSSTYYADSVKGRFTISLDNAKNTVYFQMNSLKPEDTAVFYCAATRGTKFYWGQGTQVTVSS”, the “polyreactivity (PSR sort gate)” value was “high polyreactivity”.
